US7803382B2, “Method for inducing immune response to NY-CO-58” (Ludwig Institute for Cancer Research Ltd., priority 2001, dated 2010)

Tested on: sera from colon cancer patients
Assay: Spot assay: reactivity of serologically defined colon cancer antigens with colon cancer patient sera
Format: binding, human
Conditions: reactive sera/sera tested; includes autologous where applicable; sera 1:200
Description: Serum samples from patients with colon cancer were screened using a modification of the plaque assay, termed a spot assay. In this method, 80×120 mm nitrocellulose membranes were precoated with a film of NZY/0.7% Agarose/2.5 mM IPTG and placed on a reservoir layer of NZY/0.7% Agarose in a 86×128 mm Omni Tray (Nalge Nunc International Corp., Naperville, Ill.). Approximately 1.0×10^5 pfU of monoclonal phage encoding individual serologically defined colon cancer antigens, in a volume of 20 μl, were mixed with 20 μl of exponentially growing E. coli XL-1 Blue MRF and spotted (0.7-μl aliquots) on the precoated nitrocellulose membranes. Membranes were incubated for 15 hours at 37° C. A total of 75 different serologically defined colon cancer antigens were spotted in duplicate per nitrocellulose membrane. The agarose film was then removed from the membrane and the filters were processed for reactivity with individual serum samples (1:200 dilution), as described in Scanlan, et al., Int. J. Cancer 76:652-658 (1998) and Scanlan, et al., Int. J. Cancer 83:456-64, (1999).

B1: TNKL (BC-203): serologically defined colon cancer antigen, protein SEQ ID NO:26 (protein, listed as Homo sapiens)
chain: QGAQRGARVGAAMGLRRSGDSREPSGPGPERVFSGGPRPPARGAGAPAPVAGAVAGCGGGQDHVGSPLRRRGSGLRDAAAEAVEPAARELFEACRNGDVERVKRLVTPEKVNSRDTAGRKSTPLHFAAGFGRKDVVEYLLQNGANVQARDDGGLIPLHNACSFGHAEVVNLLLRHGADPNARDNWNYTPLHEAAIKGKIDVCIVLLQHGAEPTIRNTDGRTALDLADPSAKAVLTGEYKKDELLESARSGNEEKMMALLTPLNVNCHASDGRKSTPLHLAAGYNRVKIVQLLLQHGADVHAKDKGDLVPLHNACSYGHYEVTELLVKHGACVNAMDLWQFTPLHEAASKNRVEVCSLLLSYGADPTLLNCHNKSAIDLAPTPQLKERLAYEFKGHSLLQAAREADVTRIKKHLSLEMVNFKHPQTHETALHCAAASPYPKRKQICELLLRKGANINEKTKEFLTPLHVASEKAHNDVVEVVVKHEAKVNALDNLGQTSLHRAAYCGHLQTCRLLLSYGCDPNIISLQGFTALQMGNENVQQLLQEGISLGNSEADRQLLEAAKAGDVETVKKLCTVQSVNCRDIEGRQSTPLHFAAGYNRVSVVEYLLQHGADVHAKDKGGLVPLHNACSYGHYEVAELLVKHGAVVNVADLWKFTPLHEAAAKGKYEICKLLLQHGADPTKKNRDGNTPLDLVKDGDTDIQDLLRGDAALLDAAKKGCLARVKKLSSPDNVNCRDTQGRHSTPLHLAAGYNNLEVAEYLLQHGADVNAQDKGGLIPLHNAASYGHVDVAALLIKYNACVNATDKWAFTPLHEAAQKGRTQLCALLLAHGADPTLKNQEGQTPLDLVSADDVSALLTAAMPPSALPSCYKPQVLNGVRSPGATADALSSGPSSPSSLSAASSLDNLSGSFSELSSVVSSSGTEGASSLEKKEVPGVDFSITQFVRNLGLEHLMDIFEREQITLDVLVEMGHKELKEIGINAYGHRHKLIKGVERLISGQQGLNPYLTLNTSGSGTILIDLSPDDKEFQSVEEEMQSTVREHRDGGHAGGIFNRYNILKIQKVCNKKLWERYTHRRKEVSEENHNHANERMLFHGSPFVNAIIHKGFDERHAYIGGMFGAGIYFAENSSKSNQYVYGIGGGTGVQFTKTDLVTFATAAALLPGNLGKVFPAVQCNENGTSPPGHHSVTGRPSVNGLALAEYVIYRGEQAYPEYLITYQIMRPEGMVDG
- Reactivity of individual antigens: 6/75
